Assay results as given in patent US20240034757A1 (OXFORD UNIVERSITY INNOVATION, published 2024).
Substitutions are numbered along the chain they refer to.

T1: CCL25_HUMAN (human, UniProt O15444 24-150)
T1 sequence: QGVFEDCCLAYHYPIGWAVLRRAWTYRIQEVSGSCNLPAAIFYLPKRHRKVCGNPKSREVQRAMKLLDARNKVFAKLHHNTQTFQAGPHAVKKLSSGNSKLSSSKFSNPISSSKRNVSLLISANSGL

T2: CXCL11_HUMAN (human, UniProt O14625 22-94)
T2 sequence: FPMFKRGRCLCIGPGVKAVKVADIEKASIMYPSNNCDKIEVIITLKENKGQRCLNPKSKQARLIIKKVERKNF

T3: CXCL14_HUMAN (human, UniProt O95715 35-111)
T3 sequence: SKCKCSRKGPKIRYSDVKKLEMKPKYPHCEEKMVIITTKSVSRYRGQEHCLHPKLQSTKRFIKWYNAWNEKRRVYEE

T4: CXCL5_HUMAN (human, UniProt P42830 41-114)
T4 sequence: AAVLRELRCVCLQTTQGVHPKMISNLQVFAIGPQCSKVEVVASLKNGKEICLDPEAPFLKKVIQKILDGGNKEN

T5: CXCL4_HUMAN (human, UniProt P02776 32-101)
T5 sequence: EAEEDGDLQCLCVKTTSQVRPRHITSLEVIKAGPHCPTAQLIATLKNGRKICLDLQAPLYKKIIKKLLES

T6: CXCL2_HUMAN (human, UniProt P19875 35-107)
T6 sequence: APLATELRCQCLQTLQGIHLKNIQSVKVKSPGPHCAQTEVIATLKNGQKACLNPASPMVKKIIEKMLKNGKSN

T7: CXCL7_HUMAN (human, UniProt P02775 59-128)
T7 sequence: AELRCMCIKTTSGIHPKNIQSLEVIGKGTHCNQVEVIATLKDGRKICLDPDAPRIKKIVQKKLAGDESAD

T8: CXCL8_HUMAN (human, UniProt P10145 28-99)
T8 sequence: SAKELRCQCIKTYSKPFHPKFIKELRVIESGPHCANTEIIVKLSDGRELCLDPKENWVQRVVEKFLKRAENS

T9: CXCL10_HUMAN (human, UniProt P02778 22-98)
T9 sequence: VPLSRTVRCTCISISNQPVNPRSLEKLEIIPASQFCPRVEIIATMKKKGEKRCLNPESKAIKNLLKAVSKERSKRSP

T10: CXCL9_HUMAN (human, UniProt Q07325 23-125)
T10 sequence: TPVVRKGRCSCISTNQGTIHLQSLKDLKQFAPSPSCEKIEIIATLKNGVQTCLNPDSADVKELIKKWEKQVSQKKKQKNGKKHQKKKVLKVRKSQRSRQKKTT

T11: CXCL6_HUMAN (human, UniProt P80162 38-114)
T11 sequence: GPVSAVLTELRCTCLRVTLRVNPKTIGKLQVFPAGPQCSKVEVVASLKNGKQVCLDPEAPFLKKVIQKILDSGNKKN

T12: P1096_IXORI (Ixodes ricinus, UniProt A0A0K8RKE4 24-114)
T12 sequence: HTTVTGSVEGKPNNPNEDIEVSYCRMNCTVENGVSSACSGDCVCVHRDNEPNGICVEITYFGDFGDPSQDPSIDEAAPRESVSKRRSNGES

T13: P1095_IXORI (Ixodes ricinus, UniProt A0A0K8RCE3 24-112)
T13 sequence: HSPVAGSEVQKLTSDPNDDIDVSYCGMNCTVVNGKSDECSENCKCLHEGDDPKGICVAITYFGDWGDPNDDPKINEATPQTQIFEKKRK

T14: P1134_IXORI (Ixodes ricinus, UniProt A0A0K8RAI0 32-135)
T14 sequence: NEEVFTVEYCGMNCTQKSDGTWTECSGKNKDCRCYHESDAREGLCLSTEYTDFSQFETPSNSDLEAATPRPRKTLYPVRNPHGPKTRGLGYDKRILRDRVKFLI

T15: CXCL1_HUMAN (human, UniProt P09341 35-107)
T15 sequence: T6 sequence with P2S, L3V, L20P, K27N, Q48R, M58I, K68N, N69S, G70D

T16: CXCL3_HUMAN (human, UniProt P19876 35-107)
T16 sequence: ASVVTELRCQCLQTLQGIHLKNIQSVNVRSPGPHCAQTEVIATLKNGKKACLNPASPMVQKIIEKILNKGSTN

T17: CCL8_HUMAN (human, UniProt P80075 24-99)
T17 sequence (looked up): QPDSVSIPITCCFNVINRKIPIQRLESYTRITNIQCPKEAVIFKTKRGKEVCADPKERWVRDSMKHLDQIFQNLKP

T18: CCL5_HUMAN (human, UniProt P13501 24-91)
T18 sequence: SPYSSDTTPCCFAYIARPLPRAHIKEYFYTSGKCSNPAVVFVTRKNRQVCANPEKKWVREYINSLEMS

B1: P1146_IXORI (other)
chain: GPDTKGDEESDENELFTVEYCGTNCTQLENGSWTPCSGNNGNCRCFHESDKTVGLCLSTEYTDFSEYPDPNSSEIIAAAPLPRERLIQ
B2: P1086_IXORI (other)
chain: GSKGQRASQVSETSITAEFCDTSCTQGTDKTWSGCSGDCFCVHVGNDTEGRCMRWDGDYPSAEEEE
B3: EVA3_RHISA (other)
single chain: LVSTIESRTSGDGADNFDVVSCNKNCTSGQNECPEGCFCGLLGQNKKGHCYKIIGNLSGEPPVVRR
notes: also called Evasin-3; evasin 3
B4: CXCL13_HUMAN (ligand)
chain: VLEVYYTSLRCRCVQESSVFIPRRFIDRIQILPRGNGCPRKEIIVWKKNKSIVCVDPQAEWIQRMMEVLRKRSSSTLPVPVFKRKIP
B5: P1156_IXORI (other)
chain: ADDDNELFTVQYCGMNCTKDEGGTWTGCTGKKEGCKCYHESGKNYGLCLSTEYTDFSQYGNPSDSEIEAAKPKRSDTLSH
B6: P467_RHIPU (other)
chain: AEKSLDSDSSGEDYELWTQGCPFLVAENRTGFGTTVSCQHNCNGAIEKVPEGEPCYTIGEDGLGRMKLNLPYNCSLGECSGGVCVPNGRSDVCFKRTWEENNKAMA

Legend:
CCL25_HUMAN = target: T1, CCL25_HUMAN; test: yeast surface display FACS
CXCL11_HUMAN = target: T2, CXCL11_HUMAN; test: BLI
CXCL12_HUMAN = CXCL12_HUMAN (human, UniProt P48061 22-89); test: BLI
CXCL14_HUMAN = target: T3, CXCL14_HUMAN; test: BLI
CXCL5_HUMAN [1] = target: T4, CXCL5_HUMAN; test: BLI [Cont.]
CXCL4_HUMAN = target: T5, CXCL4_HUMAN; test: BLI [Cont.]
CXCL2_HUMAN [2] = target: T6, CXCL2_HUMAN; test: BLI [Cont.]
CXCL7_HUMAN = target: T7, CXCL7_HUMAN; test: BLI [Cont.]
CXCL8_HUMAN [3] = target: T8, CXCL8_HUMAN; test: BLI [Cont.]
CXCL10_HUMAN [4] = target: T9, CXCL10_HUMAN; test: yeast surface display FACS re-test; also: test concentration or dose not given here
CXCL9_HUMAN = target: T10, CXCL9_HUMAN; test: BLI
CXCL13_HUMAN = target: B4; test: BLI
CXCL10_HUMAN [5] = target: T9, CXCL10_HUMAN; test: BLI
CXCL6_HUMAN [6] = target: T11, CXCL6_HUMAN; test: BLI [Cont.]
P1096_IXORI = target: T12, P1096_IXORI; test: BLI
P1095_IXORI = target: T13, P1095_IXORI; test: BLI
P1080_IXORI = P1080_IXORI (Ixodes ricinus, UniProt A0A090XBL6 20-118); test: BLI
P1134_IXORI = target: T14, P1134_IXORI; test: BLI
CXCL1_HUMAN = target: T15, CXCL1_HUMAN; test: BLI
CXCL5_HUMAN [7] = target: T4, CXCL5_HUMAN; test: BLI
CXCL6_HUMAN [8] = target: T11, CXCL6_HUMAN; test: BLI
CXCL2_HUMAN [9] = target: T6, CXCL2_HUMAN; test: BLI
CXCL3_HUMAN = target: T16, CXCL3_HUMAN; test: BLI
CXCL8_HUMAN [10] = target: T8, CXCL8_HUMAN; test: BLI
CCL7_HUMAN = CCL7_HUMAN (human, UniProt P80098 24-99); test: cell-based or functional assay
CCL8_HUMAN = target: T17, CCL8_HUMAN; test: cell-based or functional assay
CCL5_HUMAN = target: T18, CCL5_HUMAN; test: cell-based or functional assay
CCL2_HUMAN = CCL2_HUMAN (human, UniProt P13500 24-99); test: cell-based or functional assay
CCL2_HUMAN, sequence (P13500 24-99 limits assumed): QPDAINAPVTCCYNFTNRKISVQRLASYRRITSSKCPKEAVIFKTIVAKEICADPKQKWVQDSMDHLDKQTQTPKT

CXCL12_HUMAN, sequence (P48061 22-89 limits assumed): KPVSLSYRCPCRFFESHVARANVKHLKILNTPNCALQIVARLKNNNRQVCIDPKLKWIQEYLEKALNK
CCL7_HUMAN, sequence (P80098 24-99 limits assumed): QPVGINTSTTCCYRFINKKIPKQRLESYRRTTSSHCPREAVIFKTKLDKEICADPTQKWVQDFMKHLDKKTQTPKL
P1080_IXORI, sequence (A0A090XBL6 20-118): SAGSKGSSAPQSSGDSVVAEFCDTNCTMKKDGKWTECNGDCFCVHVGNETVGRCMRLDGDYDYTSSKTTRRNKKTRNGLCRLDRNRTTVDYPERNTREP

B1: binds (CCL25_HUMAN).

For B2, the binding result (CXCL11_HUMAN) was “no binding (tested: 300 nM)”, the Kd (CXCL12_HUMAN) was 142 nM and the binding result (CXCL14_HUMAN) was “no binding (tested: 300 nM)”. The Kd (CXCL5_HUMAN [1]) was 26 nM, the binding result (CXCL4_HUMAN) was “no binding (tested: 300 nM)” and the Kd (CXCL2_HUMAN [2]) was 34 nM. For the same binder, the binding result (CXCL7_HUMAN) was “no binding (tested: 300 nM)”, the binding result (CXCL8_HUMAN [3]) was “no binding (tested: 300 nM)” and the “% cells over threshold fluorescence” value (CXCL10_HUMAN [4]) was 63%.

B3: no binding (tested: 300 nM) (CXCL9_HUMAN); no binding (tested: 300 nM) (CXCL13_HUMAN); no binding (tested: 300 nM) (CXCL11_HUMAN). B3: no binding (tested: 300 nM) (CXCL12_HUMAN); no binding (tested: 300 nM) (CXCL10_HUMAN [5]); no binding (tested: 300 nM) (CXCL14_HUMAN). The Kd (CXCL5_HUMAN [1]) was 24.9 nM, the binding result (CXCL4_HUMAN) was “no binding (tested: 300 nM)” and the Kd (CXCL6_HUMAN [6]) was 1.03 nM. For the same binder, the Kd (CXCL2_HUMAN [2]) was 7.49 nM and the binding result (CXCL7_HUMAN) was “no binding (tested: 300 nM)”.

With B4 the binding result (P1096_IXORI) was “no binding (tested: 300 nM)”, the binding result (P1095_IXORI) was “no binding (tested: 300 nM)” and the Kd (P1080_IXORI) was 1110 nM. B4: no binding (tested: 300 nM) (P1134_IXORI).

B5: no binding (tested: 300 nM) (CXCL9_HUMAN); no binding (tested: 300 nM) (CXCL13_HUMAN); no binding (tested: 300 nM) (CXCL12_HUMAN). For the same binder, the “RT” value (CXCL1_HUMAN) was 35.7 min, the “RT” value (CXCL5_HUMAN [7]) was 5.33 min and the “RT” value (CXCL6_HUMAN [8]) was 3.23 min. For the same binder, the “RT” value (CXCL2_HUMAN [9]) was 4.2 min, the “RT” value (CXCL3_HUMAN) was 5.76 min and the “RT” value (CXCL8_HUMAN [10]) was 46.7 min.

With B6 the “IC50, THP1 cell migration” value (CCL7_HUMAN) was 11.1 nM, the “IC50, THP1 cell migration” value (CCL8_HUMAN) was 1.92 nM and the “IC50, THP1 cell migration” value (CCL5_HUMAN) was 8.74 nM. The “IC50, THP1 cell migration” value (CCL2_HUMAN) was 3.26 nM.
